The values below are quoted from earlier work in patent US20140179681A1, “METHODS AND COMPOSITIONS OF TARGETED DRUG DEVELOPMENT” (priority 2010, published 2014).

The data set addresses T1, EGF binding site (Rattus norvegicus, UniProt G3V6K6).
T1 construct: Receptor source was rat liver membranes; tissue NovaScreen BioSciences; host or cells: rat liver membranes
The settings on record: radioligand of the inhibitor assays; rat liver membranes; read-out: KD (binding affinity).

B1: [^125I]EGF: "The radioligand was [^125I]EGF ([…]) at a final ligand concentration of 0.36 nM" (protein, UniProt P01133 23-1207, looked up)
Pro-epidermal growth factor: PQHWSCPEGTLAGNGNSTCVGPAPFLIFSHGNSIFRIDTEGTNYEQLVVDAGVSVIMDFHYNEKRIYWVDLERQLLQRVFLNGSRQERVCNIEKNVSGMAINWINEEVIWSNQQEGIITVTDMKGNNSHILLSALKYPANVAVDPVERFIFWSSEVAGSLYRADLDGVGVKALLETSEKITAVSLDVLDKRLFWIQYNREGSNSLICSCDYDGGSVHISKHPTQHNLFAMSLFGDRIFYSTWKMKTIWIANKHTGKDMVRINLHSSFVPLGELKVVHPLAQPKAEDDTWEPEQKLCKLRKGNCSSTVCGQDLQSHLCMCAEGYALSRDRKYCEDVNECAFWNHGCTLGCKNTPGSYYCTCPVGFVLLPDGKRCHQLVSCPRNVSECSHDCVLTSEGPLCFCPEGSVLERDGKTCSGCSSPDNGGCSQLCVPLSPVSWECDCFPGYDLQLDEKSCAASGPQPFLLFANSQDIRHMHFDGTDYGTLLSQQMGMVYALDHDPVENKIYFAHTALKWIERANMDGSQRERLIEEGVDVPEGLAVDWIGRRFYWTDRGKSLIGRSDLNGKRSKIITKENISQPRGIAVHPMAKRLFWTDTGINPRIESSSLQGLGRLVIASSDLIWPSGITIDFLTDKLYWCDAKQSVIEMANLDGSKRRRLTQNDVGHPFAVAVFEDYVWFSDWAMPSVMRVNKRTGKDRVRLQGSMLKPSSLVVVHPLAKPGADPCLYQNGGCEHICKKRLGTAWCSCREGFMKASDGKTCLALDGHQLLAGGEVDLKNQVTPLDILSKTRVSEDNITESQHMLVAEIMVSDQDDCAPVGCSMYARCISEGEDATCQCLKGFAGDGKLCSDIDECEMGVPVCPPASSKCINTEGGYVCRCSEGYQGDGIHCLDIDECQLGEHSCGENASCTNTEGGYTCMCAGRLSEPGLICPDSTPPPHLREDDHHYSVRNSDSECPLSHDGYCLHDGVCMYIEALDKYACNCVVGYIGERCQYRDLKWWELRHAGHGQQQKVIVVAVCVVVLVMLLLLSLWGAHYYRTQKLLSKNPKNPYEESSRDVRSRRPADTEDGMSSCPQPWFVVIKEHQDLKNGGQPVAGEDGQAADGSMQPTSWRQEPQLCGMGTEQGCWIPVSSDKGSCPQVMERSFHMPSYGTQTLEGGVEKPHSLLSANPLWQQRALDPPHQMELTQ
modifications: Pro-epidermal growth factor 125I label
B1: the Kd is 1.04 nM.
